Here are results for 13 sequences from the DeepSol protein solubility set.

A short description of the data set: soluble on expression in E. coli; label from the status in PepcDB or PDB records.
As for “SDKDSQGLLDSSLMASGTASRSEDEESLAGQKRASSQALGTIPKRRSSSRFIKRKKFDDELVESSLAKSSTRVKGAGGVESGRCSGSEPSSSEKKKVSKAPSTPVPPSPAPTPGLTKRVKKSKQPLQVTKDLGRWKPADDLLLINAVLQTNDLTSVHLGVKFSCRFTLREVQERWYALLYDPVISKLACQAMRQLHPEAIAAIQSKALFSKAEEQLLSKVGSSSQPTLETFQDLLHTHPDAFYLARTAKALQAHWQLMKQYYLLEDQTVQPLPKGDQVLNFSDAEDLIDDSKLKDMRDEVLEHELTVADRRQKREIRQLEQELHKWQVLVDSITGMGSPDFDNQTLAVLRGRMVRYLMRSREITLGRATKDNQIDVDLSLEGPAWKISRKQGVIKLKNNGDFFIANEGRRPIYIDGRPVLCGSKWRLSNNSVVEIASLRFVFLINQDLIALIRAEAAKITPQ”, the “soluble on expression in E. coli” value is listed as “soluble”.

As for “MSLSEKAKKPQKLKARLPRGFVDRSAADIHATNEMVDKIRRVYELYGFDPIETPLFEYTDALGKFLPDSDRPNEGVFSLQDDDDQWMSLRYDLTAPLARHVAENFNEIQLPYRTYRAGYVFRNEKPGPGRFRQFMQFDADTVGAAGVQADAEMCMMMADTMEALGIARGDYVIRVNNRKVLDGVMEAIGLGGEDNAGRRLNVLRAIDKLDKFGPEGVKLLLGPGRKDESGDFTKGAGLGDEQIEKVLFFVGIKDYAASADDLAKLVAGTSKGEEGVDELNTIGALVSGAGYDATRIKIDPSVVRGLEYYTGPVYEAELTFDVTNEKGEKVVFGSVGGGGRYDGLVSRFMGQPVPATGFSIGVSRLMTALKNLGKLGQVKPLAPVLITVMDGDVESMGRYQRFTQALRAEGIRAEMYQGNWKKFGNQLKYADRLGSPIAIIQGGDERAEGVVQIKDLIEGKRLSGEIEDNASWREARVAQVSEGHHHHHH”, the “soluble on expression in E. coli” value is listed as “soluble”.

“MSLGRNEPVIGITPSFDYNENKMYINNIYCEAIILSGGMPVLLPVTEDEGLLSQMVEEFDGFLLSGGPDVDAVHWGEWNYSYNGEISPHRDKMELFIAKEAVAKDKPIFGICRGIQVLNVALGGTLYQDIYSQNKEKRLIKHSQNAPRWYPVHKVMLKAGSKVRNAHGAESIAVNSFHHQAVREPAPDFIVTGTSEDGIIEAIEHKNCKFAVGVQWHPEHMWKRDLSFLNIFKYFVSSCLEGHHHHHH”: the “soluble on expression in E. coli” value is on record as “soluble”.

As for “MSELNLSPDKLTVLLMGGSFGAGNIKETLDELLDTDRDFQILVITGKNESLKEKIEKKLMSRYHDKNVCVLGYTDKMNDILASIDVLVSKPGGLTTTEALLKDVPMIVPYYIPGQEEENLDFLSNCGAALRTTKKYNLSILLKVLIDDPSRLEMLKRNIKSIRKSNSAQNIANLILNIISGLEHHHHHH”, the “soluble on expression in E. coli” value is “not soluble”.

On to “MGSDKIHHHHHHMKLAYFVIPHIGGTYSVFKHLRKGLAAYDIDVRWLGVCKETYGLPLDLQGETAFGQLLRMPVNLSERDCAARMAAAIENGGFDGVIVNVLGDQLQTNIARYLPEGILRILVVHNISPGTYAAARSVRDYAHVTIGVSERCRADLVARNGFPKDRTYAIPNAVDSDAFRSQAVRRVNRGPELKVLFVGRIEDASKGVMWLREILDGSPEAVRLTIVGDGPDMGKLRRRLASHDDRVSYAGSVQLSDIPVIMASHDVLIMPSRFEGLGMTMIEAMAGGCVPVVSHIRGVTDTIVEPGRNGFLFPIGNYTAAANAIGRLHADRDLLERMSIAGKEMVLNRFSIERMAARYNEVIAMTLNDRPGLSTVLRMEDWSIPAGLRPGLRTYLPLPLKNWLRVVRERL”, for which the “soluble on expression in E. coli” value was “not soluble”.

For the sequence “MAHHHHHHMMSTYMTRYDYDYNRDPSLTGSDGGSGGGFEQEISGEVRNRPIFAYGVDTGDRDDRTIYQVDYTHKDRSVKNMAGLAATLKGSAASAAAARMRGQDNGTAYQHNWYLPAASAHVVLVDGSHPHTVYQDDYQAPRHVAGGAVHDPVCYAGAAAAAYNADLLKPHGVMEDDGADLAPKITSKESLLPRKHASPNATWTPVFENTADHRHTWNDCVPGDGVVGTYVCTSWDYGDTSQAHPLQLPLSLARSLAAHNLDASANPDKAALLRHLAGKNYSSRTLRGSSSGAPLDTNDRTNPQFLSTVEQKRCAVSRRLEKEHYVTMSIYKSDFIDQGLLPELPGNPGGPADVRDTHTSPLATAGEMMAGQLTTATRELGLLRNAHGTLKSGEAHAASRVSTGVLSAMRAMEKAASIDKADPHCHKLCE”, the “soluble on expression in E. coli” value was “not soluble”.

As for “MGSDKIHHHHHHMIVEMTGIHKSFSGNPVLKDVSFTLEKGEIHALMGENGAGKSTLMKILTGIYERDSGTVKIKGREVHYKHPKEAEADGLAVIHQELNILPELTVAENLFVGKERTYGKTGWIKSKEMNRLAEEKLAELGLKVKGTERAGNLSVGKQQLIEIAKALMTNADIIIMDEPTAALTDREIDTLFATVRELQKKGVTFVYISHRMEEIFSLCQRITVLRDGEYVGTKVIAETSFDEIVKMMVGRALGNRFPEHTLTPGDVKLEIKHLTRAGEFENVSLSVRAGEILGISGLMGAGRSELVETIFGYRKADSGEVWIDGKQAAIKGPDQAIAQGIGFVSEDRKSKGLIVDFSIRDNISLTNLSRISTSSWISSEKERSLYEELAKKLHVKASGPSQQAKSLSGGNQQKIVIAKWLGIEPKILILDEPTRGVDVGAKKEIYTIMNELAKQGVAIIMVSSELPEVIGLSTRVAVMFEGKLMHILERDELSEETIMHYATGGDKHVRQ”, the “soluble on expression in E. coli” value is “not soluble”.

As to “MGSDKIHHHHHHMNPLETLWQLAANSVKADVLHLALEQQIFDRLEDVTAPEQLAESLGWQPEKTGFLLEILWSMQLLTRHHGGYRTASASSAVLCRSSPRFLGDAWRFRLTSLRQFGQGLADGMHQPLPAQLSELPRDAAWASAAEQQIAQEQRSITADLADQLLSRLPDFPQIRHVLDLGGGPGWVAITLALRHAQISGTIYDLPQTAAVAQRNINAAGLSARLSAQSGAFPSEKYDLIWSSSFLHFVEDIPAMLSTLYNTLTPDGSLVLAQAEIPEEADDAAPILPFYLPMQISGRHVTQEGQLTQWLVEAGFTSVETRRHQAFPMAPLNVLIARKHR”, the “soluble on expression in E. coli” value was “not soluble”.

With “NNPVSETITRKHVDKDQIRAFGVVAEDNAQLEKGSLVMMGGKYWFVVNPEDSAKLTGILKAGLDKPFQIVEDTPSYARHQALPVKLESPGSQNFSTEGLCLRYDTDKPADIAKLKQLGFEAVKLDNRTIYTRCVSAKGKYYATPQKLNADYHFEQSVPADIYYTVTEEHTDKSKLFANILYTPP”, the “soluble on expression in E. coli” value was “not soluble”.

With “MQTPSKKYVVDIWSDFVCPWCWIAKRRFENALNRSGMQDDVQVNVRAYRLAANQAPEPMIGALKRKLGNPASADSMMSTVSKYGRADGLDYRFDTMMFGDTADAHILVKAVEDTAVKKRLVEALYEQSTSHGRSLFDRSSLEAIAREVGVSDESIQLAWSSVELRNEMKDDESFAAQLGSGVPLFVFDSSFSVSGAQPDAVFLEALNKMVANSNPEDSSMMGQVCSIDGCKVLEHHHHHH”, the “soluble on expression in E. coli” value is recorded as “not soluble”.

“ASMRPVRLMKVFVTRRIPAEGRVALARAADCEVEQWDSDEPIPAKELERGVAGAHGLLCLLSDHVDKRILDAAGANLKVISTMSVGIDHLALDEIKKRGIRVGYTPDVLTDTTAELAVSLLLTTCRRLPEAIEEVKNGGWTSWKPLWLCGYGLTQSTVGIIGLGRIGQAIARRLKPFGVQRFLYTGRQPRPEEAAEFQAEFVSTPELAAQSDFIVVACSLTPATEGLCNKDFFQKMKETAVFINISRGDVVNQDDLYQALASGKIAAAGLDVTSPEPLPTNHPLLTLKNCVILPHIGSATHRTRNTMSLLAANNLLAGLRGEPMPSELKL”: the “soluble on expression in E. coli” value was “soluble”.

Take “MSALDPQASARVARTPDAEPEAVDASAAGESAGLIARLGRLFERDRLPPPADLAQLFEARLTDVRANKLAQAWRLAYEQADGKRRRAMLGGLAQVGAGMQGDGAQGTRLFKRFNALPDGLRFLVALRADMLRWRKQVAGLQALDKELEALLSAWFDVGLLELRPLTWDSPASLLEKLILYEAVHEIRSWDDLRHRVAGDRRCYAYFHPQMPDVPLIFVEVAFSAQMADNVQALLDTSAPPQDLDKARWAIFYSISNTQPGLRGISFGNFLLKRVIDRLLQELPKLKFFATLSPIPGFADWLSRLDAQEVEQAVRDKARTRSGAPDGARWVARLARAATGKPSEVVQRAGLRLAARYLQAMRAGQPLDPVARFHLGNGARIERLNWAADTSAKGLAQSCGMMVNYLYELGDLDGNLARLNEGKPQVSRGIARLGLEHHHHHH”: the “soluble on expression in E. coli” value is listed as “not soluble”.

In the case of “MTRDEMRYMLETEGVLENEELEMLQGVFSLDTKVAREVMVPRTDAFMVDIQDDVQENINLILGENYSRIPVYSEDKDKIVGILHTKTLLKAARNLGFENIELGAIIQEPLFVPETIFIDDLLYELKRTQNQMAILLDEYGGVVGLATLEDLLEEIVGEID”, the “soluble on expression in E. coli” value was “not soluble”.
